Here are results for one molecule from US20190030180A1.

For the experiment, the target named is human AXL (full length) (human) (UniProt P30530). Briefly: flow cytometry; A431 cells pre-incubated with 10 µg/mL Gas6. Background: A flow cytometer gives signals particle by particle.
UniProt P30530, sequence (P30530 26-894 limits assumed): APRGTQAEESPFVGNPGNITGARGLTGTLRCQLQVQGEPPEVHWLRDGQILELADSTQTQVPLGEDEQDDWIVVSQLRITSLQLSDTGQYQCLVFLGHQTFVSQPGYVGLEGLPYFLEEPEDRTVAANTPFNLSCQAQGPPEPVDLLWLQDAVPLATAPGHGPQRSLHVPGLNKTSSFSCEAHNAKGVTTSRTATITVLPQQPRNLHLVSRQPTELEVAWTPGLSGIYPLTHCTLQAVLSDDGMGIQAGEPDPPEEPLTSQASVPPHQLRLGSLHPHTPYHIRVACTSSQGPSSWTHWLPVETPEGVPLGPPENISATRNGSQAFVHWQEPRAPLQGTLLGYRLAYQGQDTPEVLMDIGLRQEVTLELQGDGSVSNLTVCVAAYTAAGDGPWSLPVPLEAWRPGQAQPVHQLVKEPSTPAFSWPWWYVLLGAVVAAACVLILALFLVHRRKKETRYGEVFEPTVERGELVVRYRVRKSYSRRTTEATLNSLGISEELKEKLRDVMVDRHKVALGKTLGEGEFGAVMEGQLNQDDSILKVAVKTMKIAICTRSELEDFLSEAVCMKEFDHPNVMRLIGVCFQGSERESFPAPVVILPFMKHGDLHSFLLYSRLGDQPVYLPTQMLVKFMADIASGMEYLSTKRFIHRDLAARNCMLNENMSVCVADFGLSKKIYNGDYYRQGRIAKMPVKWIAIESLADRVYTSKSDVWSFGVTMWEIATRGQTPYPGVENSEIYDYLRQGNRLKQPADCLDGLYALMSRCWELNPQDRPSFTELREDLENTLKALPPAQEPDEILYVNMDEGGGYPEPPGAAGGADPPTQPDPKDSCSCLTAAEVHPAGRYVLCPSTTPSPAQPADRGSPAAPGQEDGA

B1: IgG1-YW327.6S2 (antibody, from another filing, V domains shown)
VH: EVQLVESGGGLVQPGGSLRLSCAASGFSLSGSWIHWVRQAPGKGLEWVGWINPYRGYAYYADSVKGRFTISADTSKNTAYLQMNSLRAEDTAVYYCAREYSGWGGSSVGYAMDYWGQGTLVTVSS
VL: DIQMTQSPSSLSASVGDRVTITCRASQDVSTAVAWYQQKPGKAPKLLIYSASFLYSGVPSRFSGSGSGTDFTLTISSLQPEDFATYYCQQSYTTPPTFGQGTKVEIK
With B1, the fold change of EC50 with Gas6 pre-incubation against without Gas6 came out at 21 fold and the maximal binding in presence of Gas6 (% of binding in absence of Gas6) came to 19%.
